Target: MIWI (mouse homologue of PIWI) (UniProt Q9JMB7 1-862)
Assay: EMSA; shift abolished by MIWI antibody, not by Argonaute 3 antibody; competed by cold piR1; 20 mM HEPES (pH not stated), 3 mM MgCl2, 40 mM KCl, 5% glycerol, 2 mM DTT, 4 U RNase inhibitor; 5 ug MIWI in 25 ul; on ice, 30 min with probe (competitor/antibody 1 h before); 5% native PAGE
Conditions: protein: recombinant; tags: FLAG; label: 32P end label

Sequence of MIWI (mouse homologue of PIWI) (Q9JMB7 whole entry): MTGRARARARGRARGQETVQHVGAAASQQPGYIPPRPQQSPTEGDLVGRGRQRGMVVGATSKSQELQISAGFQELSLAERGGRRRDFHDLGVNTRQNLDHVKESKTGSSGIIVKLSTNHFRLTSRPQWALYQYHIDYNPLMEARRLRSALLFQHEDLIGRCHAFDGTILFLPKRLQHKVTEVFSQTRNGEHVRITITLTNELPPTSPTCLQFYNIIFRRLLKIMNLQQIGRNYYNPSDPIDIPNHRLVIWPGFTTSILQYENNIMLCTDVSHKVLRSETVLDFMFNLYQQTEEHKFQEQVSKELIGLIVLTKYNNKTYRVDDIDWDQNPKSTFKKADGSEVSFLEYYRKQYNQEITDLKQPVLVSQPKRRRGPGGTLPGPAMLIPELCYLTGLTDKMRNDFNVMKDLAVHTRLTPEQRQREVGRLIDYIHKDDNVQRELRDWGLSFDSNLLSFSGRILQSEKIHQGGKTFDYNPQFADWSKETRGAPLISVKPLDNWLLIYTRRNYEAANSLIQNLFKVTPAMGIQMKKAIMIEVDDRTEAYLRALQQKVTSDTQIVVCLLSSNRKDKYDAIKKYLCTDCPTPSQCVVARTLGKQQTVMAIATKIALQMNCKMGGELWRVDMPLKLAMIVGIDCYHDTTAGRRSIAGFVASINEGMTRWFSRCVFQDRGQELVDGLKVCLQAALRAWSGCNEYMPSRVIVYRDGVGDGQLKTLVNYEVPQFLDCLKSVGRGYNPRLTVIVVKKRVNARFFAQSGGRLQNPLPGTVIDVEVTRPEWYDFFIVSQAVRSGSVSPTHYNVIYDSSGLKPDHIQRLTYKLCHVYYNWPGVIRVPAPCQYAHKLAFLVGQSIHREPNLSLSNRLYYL

Does UCAUUGGACAUAAACUGAAUUUUCCA (ssRNA) [spot A4 oligo (FJ541077)] bind?
Result: binds

Does GAAGCAGAUGAGUAUAUG (ssRNA) [Sod oligo (FJ541118)] bind?
Result: binds

Reference: publication PMC8428117, “Y chromosomal noncoding RNAs regulate autosomal gene expression via piRNAs in mouse testis”
